Among the data in PMC3315329 are reduction of the 40S-associated amount relative to wt, reduction of the 40S-bound amount in nip1-Δ60 cells relative to wt and reduction of the eIF/40S ratio in nip1-743A752 cells relative to wt values, retold here.

For assay [1], the target named is 40S ribosomal subunits of asc1Δ cells (lacking ASC1) (S. cerevisiae (endogenous in yeast)) (UniProt P32905). As to the kind of experiment: cross-linking + co-sedimentation.
In assay [2] the target is 40S ribosomal subunits (wild type) (S. cerevisiae (endogenous in yeast)) (UniProt P38011). Put plainly: cross-linking + co-sedimentation.
Sequence of UniProt P38011 (P38011 whole entry, looked up, tested part not stated): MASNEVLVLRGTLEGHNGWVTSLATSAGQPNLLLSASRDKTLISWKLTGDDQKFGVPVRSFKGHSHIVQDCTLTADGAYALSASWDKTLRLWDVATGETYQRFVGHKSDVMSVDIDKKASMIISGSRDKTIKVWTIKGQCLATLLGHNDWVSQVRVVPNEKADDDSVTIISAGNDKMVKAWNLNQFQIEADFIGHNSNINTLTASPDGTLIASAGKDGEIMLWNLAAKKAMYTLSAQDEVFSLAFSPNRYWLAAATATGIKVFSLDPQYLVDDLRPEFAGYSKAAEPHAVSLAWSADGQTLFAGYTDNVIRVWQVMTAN

Sequence of UniProt P32905 (P32905 whole entry, looked up, stated change not applied, tested part not stated): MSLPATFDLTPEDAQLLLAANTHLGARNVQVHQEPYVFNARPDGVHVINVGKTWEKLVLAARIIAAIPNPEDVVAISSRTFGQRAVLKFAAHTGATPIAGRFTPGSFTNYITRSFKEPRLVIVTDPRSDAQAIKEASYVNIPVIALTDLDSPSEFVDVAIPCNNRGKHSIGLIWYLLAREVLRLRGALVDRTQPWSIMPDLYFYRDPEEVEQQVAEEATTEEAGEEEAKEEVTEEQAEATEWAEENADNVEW

Consider “eIF2 (from UniProt P20459 1-304; P09064 1-285; P32481 1-527) (complex)”, for which the reduction of the 40S-associated amount relative to wt in assay [1] turned out to be 50%.

With “eIF5 (from UniProt P38431 1-405) (natural protein)”, in assay [2], the reduction of the 40S-bound amount in nip1-Δ60 cells relative to wt was determined as 20% and the reduction of the eIF/40S ratio in nip1-743A752 cells relative to wt came to 60%. In assay [1], the reduction of the 40S-associated amount relative to wt is 50%.
